B1: HDV Ribozyme (parent)
chain: GGCCGGCAUGGUCCCAGCCUCCUCGCUGGCGCCGGCUGGGCAACAUUCCGAGGGGACCGUCCCCUCGGUAAUGGCGAAUGGGACCCA

Variants of: B1
Experiment: self-cleavage, relative activity (ratio to wild type); higher = more cleavage; co-transcriptional
With C41G A42U the self-cleavage was 0.886. Work on C41G C48A yielded a self-cleavage of 1.12. C41G C48G showed a self-cleavage of 0.682. For C41G C48U, the self-cleavage was 0.649. For C41G A56G, the self-cleavage was 0.851. For C41G A56U, the self-cleavage was 0.746. Variant C41A G74A has a self-cleavage of 0.692. C41G C61G gave a self-cleavage of 0.875. For C41G C61U, the self-cleavage was 0.886. Variant C41A has a self-cleavage of 0.94. Variant C41U has a self-cleavage of 0.979. With C41G the self-cleavage was 0.798. C41A C63A gave a self-cleavage of 0.969. Work on C41A G54U yielded a self-cleavage of 0.862. With C41G G50U the self-cleavage was 0.708. With C41G U69G the self-cleavage was 0.755. Work on C41G G59A yielded a self-cleavage of 0.758. C41G G59C gave a self-cleavage of 0.919. G40U U72A gave a self-cleavage of 0.181. G40U U72C showed a self-cleavage of 0.176. Work on C41G G82U yielded a self-cleavage of 0.157. In the case of C41A A71U, the self-cleavage is reported as 0.665. C41A A71G gave a self-cleavage of 0.91. In the case of C41A A83U, the self-cleavage is reported as 0.35. C41G C84G gave a self-cleavage of 0.665. C41G C84A gave a self-cleavage of 0.508. Variant C41G C84U has a self-cleavage of 0.456. For C41U A45C, the self-cleavage was 0.569. C41G A71C gave a self-cleavage of 0.0723. Work on C41G A71U yielded a self-cleavage of 0.554. Variant C41A U46A has a self-cleavage of 0.7. In the case of C41A U46G, the self-cleavage is reported as 0.554. C41A U46C showed a self-cleavage of 0.415. Work on C41G G67C yielded a self-cleavage of 0.678. In the case of C41G G67U, the self-cleavage is reported as 0.48. C41G A51C gave a self-cleavage of 0.635. Work on C41A C44U yielded a self-cleavage of 0.692. C41A C44A showed a self-cleavage of 0.404. Work on C41A C64A yielded a self-cleavage of 0.794. In the case of C41A C64U, the self-cleavage is reported as 0.831. Variant C41A C62U has a self-cleavage of 0.869. In the case of C41A A43U, the self-cleavage is reported as 0.57. Variant C41A A43C has a self-cleavage of 0.872. With C41G C86G the self-cleavage was 0.914. In the case of C41G C86A, the self-cleavage is reported as 1.14. Work on C41G C63G yielded a self-cleavage of 0.517. C41U A42C showed a self-cleavage of 0.519. With C41U A42G the self-cleavage was 0.872. With C41U A42U the self-cleavage was 0.831. For C41G U47G, the self-cleavage was 0.598. C41G U47C showed a self-cleavage of 0.633. With C41G A77C the self-cleavage was 0.222. In the case of C41G A77U, the self-cleavage is reported as 0.185. For C41A G68A, the self-cleavage was 1.01. In the case of C41A G68C, the self-cleavage is reported as 0.665. Variant C41A G68U has a self-cleavage of 0.561. C41A A51G showed a self-cleavage of 0.705. Work on C41A A51C yielded a self-cleavage of 0.875. With C41G G76C the self-cleavage was 0.91. Variant C41G G76A has a self-cleavage of 0.991. C41G G76U gave a self-cleavage of 0.989. Work on C41G G81A yielded a self-cleavage of 0.188. In the case of C41A G50A, the self-cleavage is reported as 0.957. C41A G50U showed a self-cleavage of 0.886. C41A G50C showed a self-cleavage of 0.877. Work on C41G A83U yielded a self-cleavage of 0.77. For C41A U72G, the self-cleavage was 0.712. Variant C41A U72A has a self-cleavage of 0.906. With C41A U72C the self-cleavage was 0.653. In the case of G40U U60G, the self-cleavage is reported as 0.796. Work on G40U U60A yielded a self-cleavage of 0.795. Work on G40U U60C yielded a self-cleavage of 0.723. In the case of C41G C44G, the self-cleavage is reported as 0.158. For C41U A43G, the self-cleavage was 0.356. With C41U A43C the self-cleavage was 0.831. In the case of C41U A43U, the self-cleavage is reported as 0.489. With C41A A56U the self-cleavage was 0.89. C41A G55U showed a self-cleavage of 0.968. C41A C75U showed a self-cleavage of 0.145. In the case of C41A C75G, the self-cleavage is reported as 0.0773. C41A C75A showed a self-cleavage of 0.208. Variant C41G G54A has a self-cleavage of 0.831. C41A A45C showed a self-cleavage of 0.504. For C41A A45G, the self-cleavage was 0.942. With C41A A45U the self-cleavage was 0.872. C41G C66G showed a self-cleavage of 0.831. In the case of C41G C66A, the self-cleavage is reported as 0.96. In the case of C41G G55U, the self-cleavage is reported as 0.86. Work on C41G G55A yielded a self-cleavage of 0.911. In the case of C41G C58G, the self-cleavage is reported as 0.974. For C41G C62G, the self-cleavage was 0.252. Work on C41G U46C yielded a self-cleavage of 0.297. Work on C41G U46A yielded a self-cleavage of 0.293. With C41G C75G the self-cleavage was 0.219. Variant C41G C75A has a self-cleavage of 0.353. With C41G C75U the self-cleavage was 0.095. C41G A87U showed a self-cleavage of 0.788. In the case of C41A G53A, the self-cleavage is reported as 0.967. For C41A C57A, the self-cleavage was 1.02. For C41A C57G, the self-cleavage was 1.04. Variant C41A G67C has a self-cleavage of 0.525. Work on C41A G52A yielded a self-cleavage of 0.901. C41A G52C showed a self-cleavage of 0.928. Variant C41G U79A has a self-cleavage of 0.59. For C41G U79C, the self-cleavage was 0.35. With C41G U79G the self-cleavage was 0.302. G40U U79A gave a self-cleavage of 0.262. C41A C48A showed a self-cleavage of 0.982. C41A C48U showed a self-cleavage of 1.02. For G40U U65G, the self-cleavage was 0.546. G40U U65C gave a self-cleavage of 0.7. Variant C41G A43C has a self-cleavage of 0.308. For C41G A43U, the self-cleavage was 0.277. C41G A43G showed a self-cleavage of 0.262. With C41A C58U the self-cleavage was 0.778. Work on C41A C58A yielded a self-cleavage of 0.831. C41A U47A showed a self-cleavage of 0.689. C41A C84U showed a self-cleavage of 0.388. For C41A C84G, the self-cleavage was 0.749. For C41A G76U, the self-cleavage was 1.02. For C41G G52C, the self-cleavage was 0.509. C41G A78U gave a self-cleavage of 0.178. For C41G A78G, the self-cleavage was 0.208. For C41G A78C, the self-cleavage was 0.0405. For C41G A45C, the self-cleavage was 0.166. C41G A45U gave a self-cleavage of 0.594. For C41G A45G, the self-cleavage was 1.01. C41A A70U gave a self-cleavage of 0.817. With G40U U69A the self-cleavage was 0.623. For G40U U69C, the self-cleavage was 0.91. Variant C41A G80A has a self-cleavage of 0.389. Variant C41A G80U has a self-cleavage of 0.187. With C41G C85A the self-cleavage was 0.617. With C41A C86A the self-cleavage was 0.815. Work on C41G C57A yielded a self-cleavage of 1.05. C41G C57U gave a self-cleavage of 1.04. In the case of C41A U65C, the self-cleavage is reported as 1.14. C41G U60C showed a self-cleavage of 0.997. C41G U60G showed a self-cleavage of 0.72. In the case of C41A C85A, the self-cleavage is reported as 0.636. For C41A C85G, the self-cleavage was 0.86. Variant C41G G74A has a self-cleavage of 0.486. C41G G74U gave a self-cleavage of 0.47. C41G G74C gave a self-cleavage of 0.119. C41G G53U gave a self-cleavage of 0.53. C41G G53C gave a self-cleavage of 0.658. C41G U65A gave a self-cleavage of 0.987. In the case of C41G U65G, the self-cleavage is reported as 0.692. C41A U60C showed a self-cleavage of 1.05. C41G C64U gave a self-cleavage of 0.853. C41G C64A showed a self-cleavage of 0.853. Variant C41A A78G has a self-cleavage of 0.534. In the case of C41A A78C, the self-cleavage is reported as 0.185. Work on C41A C49A yielded a self-cleavage of 0.519. For C41G C49A, the self-cleavage was 0.489. For C41A C61A, the self-cleavage was 1.07. Variant C41A C61G has a self-cleavage of 0.909. C41A A42G showed a self-cleavage of 0.269. For C41A C66U, the self-cleavage was 0.9. In the case of C41A A87G, the self-cleavage is reported as 0.883. C41A A87U showed a self-cleavage of 0.866. C41A A87C showed a self-cleavage of 1. C41G G80A gave a self-cleavage of 0.431. For C41G G80C, the self-cleavage was 0.164. In the case of C41A G81U, the self-cleavage is reported as 0.211. In the case of C41A U79G, the self-cleavage is reported as 0.858. C41A U79C gave a self-cleavage of 0.237.

— the RNAGym collection of RNA variant scans (doi:10.7554/elife.80360)
